Laboratory results from PMC10465003, “The AAA-ATPase Yta4/ATAD1 interacts with the mitochondrial divisome to inhibit mitochondrial fission” (PLOS Biology, 2023).
Substitutions are numbered along the chain they refer to. Names may count otherwise.

T1: Dnm1(G380D) (Schizosaccharomyces pombe, UniProt Q09748 1-781, G380D)
T1 construct: Dnm1, fission yeast dynamin-related GTPase, with G380D (corresponds to G385D of S. cerevisiae Dnm1); Removal of His-sumo is stated for His-sumo-Dnm1 only; also called assembly-defective mutant of Dnm1; source: E. coli Rosseta, expressed as His-sumo-Dnm1(G380D), purified (Ni-NTA)
T1 sequence (looked up): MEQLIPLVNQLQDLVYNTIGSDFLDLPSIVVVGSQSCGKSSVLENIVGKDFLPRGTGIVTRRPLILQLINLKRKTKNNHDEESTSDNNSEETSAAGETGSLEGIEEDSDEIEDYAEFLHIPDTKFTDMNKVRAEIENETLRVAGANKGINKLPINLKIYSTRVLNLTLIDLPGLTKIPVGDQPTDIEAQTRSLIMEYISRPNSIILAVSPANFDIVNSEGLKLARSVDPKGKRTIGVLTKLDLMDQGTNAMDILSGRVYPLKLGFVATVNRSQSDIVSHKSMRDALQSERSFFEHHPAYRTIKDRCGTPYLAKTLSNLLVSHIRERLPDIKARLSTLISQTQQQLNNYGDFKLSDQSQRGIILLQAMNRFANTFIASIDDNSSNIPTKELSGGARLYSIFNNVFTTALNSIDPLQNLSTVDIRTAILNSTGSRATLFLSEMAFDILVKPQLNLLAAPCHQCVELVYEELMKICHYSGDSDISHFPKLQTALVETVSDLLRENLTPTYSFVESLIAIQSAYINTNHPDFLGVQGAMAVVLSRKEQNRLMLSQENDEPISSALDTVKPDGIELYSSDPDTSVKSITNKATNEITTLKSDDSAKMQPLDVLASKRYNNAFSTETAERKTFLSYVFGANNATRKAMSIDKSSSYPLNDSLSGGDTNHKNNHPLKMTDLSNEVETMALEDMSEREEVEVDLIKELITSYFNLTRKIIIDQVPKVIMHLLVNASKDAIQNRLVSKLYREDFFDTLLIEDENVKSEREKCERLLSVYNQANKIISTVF

T2: GST-Mdv1(a.a. 1–249) (Schizosaccharomyces pombe (strain 972 / …, UniProt Q9P7I3))
T2 chain: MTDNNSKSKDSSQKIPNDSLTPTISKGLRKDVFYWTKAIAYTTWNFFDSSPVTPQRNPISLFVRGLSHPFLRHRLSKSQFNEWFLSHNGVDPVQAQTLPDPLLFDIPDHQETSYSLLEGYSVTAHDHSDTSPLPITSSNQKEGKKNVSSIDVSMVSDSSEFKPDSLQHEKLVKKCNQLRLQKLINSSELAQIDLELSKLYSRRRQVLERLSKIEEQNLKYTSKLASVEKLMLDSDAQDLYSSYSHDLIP

T3: GST-Mdv1(a.a. 1–249) (Schizosaccharomyces pombe, UniProt Q9P7I3 1-249)
T3 construct: Mdv1, S. pombe, residues 1-249, the N-terminus; also called GST-Mdv1(NT); not shown: GST, N-terminal, kept
T3 sequence (looked up): T2 chain

B1: Dnm1 (enzyme, Schizosaccharomyces pombe, UniProt Q09748 1-781, looked up)
chain: T1 sequence (looked up) with D380G
notes: Dnm1, fission yeast dynamin-related GTPase; also called Dnm1(WT); recombinant Dnm1; source: E. coli Rosseta, purified (Ni-NTA, sumo protease, size-exclusion chromatography); not shown: His-sumo, N-terminal, cleaved
B2: GST-Mdv1(319–651) (domain or fragment, Schizosaccharomyces pombe, UniProt Q9P7I3 319-651, looked up)
chain: YIVGNLVKQFQAHSEYITSLDFSHPFGTLATASTDKTVKVWDMAGVVYLGSLKGHSDYVSCLAIQDSFIATGSMDTTVRLWNLDNDVLHKDNPVEESLNSPPDQPVDNATNVLTSHTAPVTALALSSDDVLITGADDKTVRQWDIVTGRCIQTLDFVWAETHDTSTSQILVSDTYKQEPFIRALDCLDAAVASGTVDGLIRIWDLRIGLPVRSFIGHTAPISSLQFDSNHLYSGSYDNSVRIWDLRSGSPINIIPMEKKVNSLRLYQGRLAVASDEPNVRIFDTVSNRNWICSIPSHSDSIAAEPNSVPTSVQYKDRFLVDGKSDGSVSVFSA
notes: also called GST-Mdv1(WD); Mdv1(WD); source: E. coli BL21, purified (Glutathione Sepharose 4B resins); not shown: GST, N-terminal, kept
B3: Dnm1 (Schizosaccharomyces pombe 972h-; G380D) (protein)
chain: T1 sequence (looked up)
notes: Dnm1 expressed as His-sumo-Dnm1 in E. coli Rosetta; His-sumo tag removed by sumo protease; Ni-NTA and SEC; forms heterogeneous oligomers
B4: His-Fis1(1–128) (domain or fragment, Schizosaccharomyces pombe, UniProt Q9USZ8 1-128, looked up)
chain: MTEKHTLRLADPSAIDSIISVDEFLQIKEQYDAEQPLITLQTKFNLAWALVRSDSTQHVQQGLSLFCSIYKDSPERRLECLYYIALSHYKLKQYEESRRYLNMLLSKDPNSPEALKLKNRLYDAVTKE
notes: also called His-Fis1(∆TM); Fis1(∆TM); source: E. coli BL21, purified (Ni-NTA, size-exclusion chromatography); not shown: His tag, N-terminal, kept

How the values were obtained:
[1] = biological target: Hcp1-Yta4(a.a. 35–355) (not stated | Schizosaccharomyces pombe); assay: SEC + cross-linking; Superdex 200 Increase 10/300 GL in hypersaline buffer (500 mM NaCl, 500 mM KCl, 1 mM ATP, pH 7.5); EGS 4 mM, 300 ng/μL protein, 30 min at room temperature, SDS-PAGE with silver staining
[2] = biological target: Hcp1-Msp1(a.a. 36–362) (not stated | budding yeast (Saccharomyces cerevisiae)) (UniProt P28737); assay: as above
[3] = biological target: GST-Mdv1(319–651) (Schizosaccharomyces pombe) (UniProt Q9P7I3); assay: pull-down; competitive binding: GST-Mdv1(a.a. 319–651) on glutathione resins incubated with Dnm1 or Dnm1(G380D), with or without His-Yta4(a.a 33–355); band intensities quantified
Dnm1 [4] = biological target: B1
[5] = substrate: Nc1nc2c(ncn2[C@@H]2O[C@H](COP(=O)(O)OP(=O)(O)OP(=O)(O)O)[C@@H](O)[C@H]2O)c(=O)[nH]1; assay: malachite green phosphate release, Michaelis-Menten fit; format: biochemical, Schizosaccharomyces pombe; conditions: pH 7.5, 37°C
[6] = biological target: the molecule itself; assay: co-sedimentation; velocity sedimentation: 2 μM Dnm1 with 0, 5, 50 or 100 μM GMP-PCP, with or without 40 μM His-Yta4; 20 min at 37°C, 10,000 g 15 min at 4°C; supernatant and pellet on SDS-PAGE
Dnm1 [7] = biological target: B1; assay: pull-down; competitive binding: GST-Mdv1(a.a. 319–651) on glutathione resins incubated with Dnm1 or Dnm1(G380D), with or without His-Yta4(a.a 33–355); band intensities quantified; conditions: both partners purified
Dnm1(G380D) = biological target: T1, Dnm1(G380D); assay: as above; conditions: both partners purified
GST-Mdv1(a.a. 1–249) [8] = biological target: T2, GST-Mdv1(a.a. 1–249); assay: GST pull-down
GST-Mdv1(a.a. 1–249) [9] = biological target: T3, GST-Mdv1(a.a. 1–249); assay: pull-down; competitive binding: GST-Mdv1(a.a. 1–249) on glutathione resins incubated with His-Fis1(a.a. 1–128), with or without His-Yta4(a.a 33–355) (Mdv1 to Yta4 1:1, 1:5, 1:10); conditions: both partners purified

**Q.** For Hcp1-Yta4(a.a. 35–355), which stoichiometry N [1] is on record?
**A.** 6

**Q.** For “Hcp1-Msp1(a.a. 36–362) (from UniProt P28737 36-362)”, which stoichiometry N [2] is on record?
**A.** 6

**Q.** “His-Yta4(a.a. 33–355) (domain or fragment)” was tested. Which Dnm1 left on GST-Mdv1(WD) with His-Yta4(∆TM), percent of the level without it [3] did it give?
**A.** 40%

**Q.** What about the Km for GTP of the GTPase activity of 0.5 μM Dnm1 (colorimetric assay, 37°C) with 5 μM and 10 μM His-Yta4(∆TM), fold increase over Dnm1 alone; Vmax not significantly affected (Dnm1 [4]) of the same molecule?
**A.** 6 fold

**Q.** Which results are given for B1?
**A.** Km ([5]; 0.5 μM Dnm1 alone, Mg2+): 193.80 µM; binding result [6]: binds

**Q.** Does B2 bind (Dnm1 [7])?
**A.** binds

**Q.** Does B2 bind (Dnm1(G380D))?
**A.** binds

**Q.** Which Km ([5]; assembly-defective mutant, 0.5 μM, without Yta4, Mg2+) does the source give for B3 here?
**A.** 85.00 µM

**Q.** Does B4 bind (GST-Mdv1(a.a. 1–249) [8])?
**A.** binds

**Q.** Does B4 bind (GST-Mdv1(a.a. 1–249) [9])?
**A.** binds
